The values below come from patent publication US20090263900.

Data set [1] relates to ZFN 2189-11 (synthetic). Briefly: cell_activity. As to conditions: pair with r2182-8; K562 cells, 50 bp HA linear donor 6.9 ug; targeted integration 2-9.4% over donors, 0% without ZFN.
In data set [2] the test system is ZFN r2182-8 (synthetic). Briefly: cell_activity. As to conditions: pair with 2189-11; K562 cells, 50 bp HA linear donor 6.9 ug; targeted integration 2-9.4% over donors, 0% without ZFN.

“ACTAGGGACAGGATTG (double strand) [AAVS1 2189-11 target half-site]” displayed an activity in data set [1] of 9.4 % TI.

“CCCCACTGTGGGGTGG (double strand) [AAVS1 r2182-8 target half-site]” had an activity in data set [2] of 9.4 % TI.
